These results are taken from patent US11028172 (LEPU BIOPHARMA, dated 2021).

Assay [1] addresses T1, human TIGIT expressed on cells (human, UniProt Q495A1 22-244).
T1 sequence (looked up): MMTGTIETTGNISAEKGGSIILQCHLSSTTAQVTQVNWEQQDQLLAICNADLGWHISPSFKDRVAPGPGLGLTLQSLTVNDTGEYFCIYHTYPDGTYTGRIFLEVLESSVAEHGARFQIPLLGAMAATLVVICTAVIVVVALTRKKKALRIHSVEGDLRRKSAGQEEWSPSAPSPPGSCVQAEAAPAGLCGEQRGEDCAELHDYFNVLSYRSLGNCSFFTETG
Kind of assay: cell-based or functional assay.

The target of assay [2] is T1, human TIGIT expressed on cells. Kind of assay: flow cytometry (FACS) on human TIGIT overexpressing mammalian cells. The procedure:
(§1) To evaluate the antigen binding property, the humanized antibodies were analyzed for their binding to human TIGIT overexpressed mammalian cells by FACS. Briefly, human TIGIT cells were firstly incubated with 3-fold serious diluted humanized antibodies starting at 5 µg/ml at 4° C. for 40 mins.
Background: In flow cytometry, cells or beads pass a laser one at a time.

For assay [3] the target is unchanged. Briefly: flow cytometry on human TIGIT overexpressing cells, Alexa Fluor 647 anti-human IgG; unit from the x axis. As for the experimental part:
as §1

Assay [4] addresses T2, human TIGIT-His protein (human, UniProt Q495A1 22-141).
T2 construct: Recombinant protein; also called human TIGIT-his tag; hTIGIT-His
T2 sequence (looked up): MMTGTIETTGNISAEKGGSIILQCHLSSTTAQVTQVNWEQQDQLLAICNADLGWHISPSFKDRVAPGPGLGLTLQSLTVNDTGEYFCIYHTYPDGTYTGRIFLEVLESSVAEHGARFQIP
Kind of assay: SPR (Biacore) affinity ranking, human TIGIT-His. Background: In SPR one partner is held on a chip, and binding of the other changes the refractive index at the surface.

The target in assay [5] is T3, biotin-labeled human TIGIT protein (human, UniProt Q495A1 22-141, biotin-labeled (sites not given)).
T3 construct: also called recombinant human TIGIT
T3 sequence (looked up): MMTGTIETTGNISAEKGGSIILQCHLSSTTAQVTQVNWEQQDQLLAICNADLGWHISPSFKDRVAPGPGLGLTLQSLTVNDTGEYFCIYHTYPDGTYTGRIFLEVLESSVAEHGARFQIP
Briefly: ELISA blocking assay: CD155-hFc coated, biotin-labeled human TIGIT, antibody titrated. The procedure:
To evaluate the blocking effects of Hu02 and Hu06 on recombinant human TIGIT to bind to its receptor CD155, an ELISA based receptor blocking assay was used.
Briefly, microtiter plates were coated with human CD155-hFc protein at 5 µg/ml in PBS, 100 µl/well at 4° C. overnight, then blocked with 150 µl/well of 1% BSA. 50 µl biotin-labeled human TIGIT protein and 3-fold dilutions of Hu02 and Hu06 antibodies starting from 10 µg/ml at 50 µl were added to each well and incubated for 1 hour at 37° C. The plates were washed with PBS/Tween and then incubated with Streptavidin-HRP for 10 mins at 37° C. After washing, the plates were developed with TMB substrate and analyzed by spectrophotometer at OD 450 nm.
On the technique in general: An ELISA detects its analyte on a solid surface through an enzyme-linked reagent.

Assay [6] concerns the target T1, human TIGIT expressed on cells. Briefly: cell-based or functional assay. The source holds these as a separate data set.
In assay [7] the target is T2, human TIGIT-His protein. Briefly: ELISA, plate coated with human TIGIT-His, anti-human IgG-HRP, OD 450nm; unit taken from the axis Log[Conc.]/ng/ml. The procedure: (§2) To evaluate the antigen binding activity, Hu02 and Hu06 were subjected to ELISA test. Briefly, microtiter plates were coated with human TIGIT-his protein at 0.5 µg/ml in PBS, 100 µl/well at 4° C. overnight, then blocked with 150 µl/well of 1% BSA. Three-fold dilutions of humanized antibodies starting from 3 µg/ml were added to each well and incubated for 1 hour at 37° C. The plates were washed with PBS/Tween and then incubated with Goat-anti-human IgG antibody conjugated with Horse Radish Peroxidase (HRP) for 0.5 hour at 37° C. After washing, the plates were developed with TMB substrate and analyzed by spectrophotometer at OD 450 nm.

Assay [8] has as its target T2, human TIGIT-His protein. Described as above. As for the experimental part: as §2, with “the humanized antibodies” for “Hu02 and Hu06”, “30 mins” for “0.5 hour”
The source holds these as a separate data set.

Assay [9] concerns the target T2, human TIGIT-His protein. Briefly: SPR (Biacore T200) full kinetics, antibody captured on Protein A chip, hTIGIT-His as analyte. As for the experimental part:
The binding of the humanized antibodies to recombinant TIGIT protein (human TIGIT-his tag) was tested by BIACORE™ using a capture method. Hu02 and Hu06 mAbs were captured using Protein A chip. A serial dilution of human TIGIT-his tag protein was injected over captured antibody for 2 mins at a flow rate of 30 µl/min. The antigen was allowed to dissociate for 1800 s. All the experiment were carried out on a Biacore T200.

Where two headings read alike, the source gives them in different places.

B1: Tiragolumab (RG6058, Roche) (antibody, V domains shown)
VH: EVQLQQSGPGLVKPSQTLSLTCAISGDSVSSNSAAWNWIRQSPSRGLEWLGKTYYRFKWYSDYAVSVKGRITINPDTSKNQFSLQLNSVTPEDTAVFYCTRESTTYDLLAGPFDYWGQGTLVTVSS
VL: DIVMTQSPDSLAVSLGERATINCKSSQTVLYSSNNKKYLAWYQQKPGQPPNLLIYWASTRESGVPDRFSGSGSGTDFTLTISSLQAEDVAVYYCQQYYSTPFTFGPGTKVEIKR
For B1, in assay [1], the “EC50, NFAT luciferase reporter (RLU), TIGIT-CD226-NFAT effector cells with Raji-CD155 target cells” value amounted to 2.95 nM and the “LogEC50, NFAT luciferase reporter (RLU), TIGIT-CD226-NFAT effector cells with Raji-CD155 target cells” value was found to be 0.47 Log[Conc.]/nM. For the same molecule, a half-maximal response in assay [2] (EC50) required 0.0368 µg/mL. The molecule also had a LogEC50 in assay [3] of 1.57 Log[Conc.]/ng/ml.

B2: 76D12B10-Hu02 (antibody, V domains shown)
VH: EVQLQESGPGLVKPSETLSLTCAVSGYSISSGYDWHWIRQPPGKGLEWIGFIRDSGSTVYNPSLKGRITISHDTSKNQFSLKLSSVTAADTAVYYCARGLFWYFDVWGQGTTVTVSS
VL: DIQMTQSPSSLSASVGDRVTITCRTSENIFSYLAWYQQKPGKVPKLLIYNTKTLAEGVPSRFSGSGSGTDFTLTISSLQPEDVATYYCQHHYGNPLTFGQGTKLEIK
notes: Humanized, VH.V2 + VK.V0
As for B2, the Kd came to 0.0196 nM with human TIGIT-His protein [4] and 0.0462 nM with human TIGIT-His protein [9]. In addition, the koff was 9.74e-05 s⁻¹ with human TIGIT-His protein [4] and 9.27e-05 s⁻¹ with human TIGIT-His protein [9]. For the same molecule, the figures for the kon with human TIGIT-His protein [4] and in the assay with human TIGIT-His protein [9] were 4.98e+06 M⁻¹ s⁻¹ and 2e+06 M⁻¹ s⁻¹, respectively. The molecule also showed an IC50 in [5] of 1.13 µg/mL. Moreover, in assay [6], the “NFAT luciferase production, EC50” value was 1.76 nM. Besides, the figures for the EC50 with human TIGIT-His protein [7] and with human TIGIT-His protein [8] were 0.00823 µg/mL and 0.0103 µg/mL, respectively.

B3: 76D12B10-Hu15 (antibody, V domains shown)
VH: EVQLQESGPGLVKPSETLSLTCAASGYSITSGYDWHWIRQPPGKKLEWMGFIRDSGSTVYNPSLKGRITISHDTSKNQFSLKLSSVTAADTAVYFCARGLFWYFDVWGQGTTVTVSS
VL: DIQMTQSPSSLSASVGDRVTITCRTSENIFSYLAWYQQKPGKVPKLLVHNTKTLAEGVPSRFSGSGSGTDFTLTISSLQPEDVATYYCQHHYGNPLTFGQGTKLEIK
notes: Humanized, VH.V5 + VK.V2
In the assay with human TIGIT-His protein [4], B3 came in with a Kd of 0.0135 nM, a koff of 0.000105 s⁻¹ and a kon of 7.76e+06 M⁻¹ s⁻¹. In the assay with human TIGIT-His protein [8], this molecule displayed an EC50 of 0.00968 µg/mL.

B4: 76D12B10-Hu10 (antibody, V domains shown)
VH: EVQLQESGPGLVKPSETLSLTCAASGYSITSGYDWHWIRQPPGKKLEWMGFIRDSGSTVYNPSLKGRITISHDTSKNQFSLKLSSVTAADTAVYFCARGLFWYFDVWGQGTTVTVSS
VL: DIQMTQSPSSLSASVGDRVTITCRTSENIFSYLAWYQQKPGKVPKLLIHNTKTLAEGVPSRFSGSGSGTDFTLTISSLQPEDVATYYCQHHYGNPLTFGQGTKLEIK
notes: Humanized, VH.V5 + VK.V1
On to B4, for which, in the assay with human TIGIT-His protein [4], the Kd was 0.0266 nM, the koff is 9.79e-05 s⁻¹ and the kon was 3.68e+06 M⁻¹ s⁻¹. The EC50 with human TIGIT-His protein [8] came out at 0.00401 µg/mL.

B5: 76D12B10-Hu12 (antibody, V domains shown)
VH: EVQLQESGPGLVKPSETLSLTCAVSGYSISSGYDWHWIRQPPGKGLEWIGFIRDSGSTVYNPSLKGRITISHDTSKNQFSLKLSSVTAADTAVYYCARGLFWYFDVWGQGTTVTVSS
VL: DIQMTQSPSSLSASVGDRVTITCRTSENIFSYLAWYQQKPGKVPKLLVHNTKTLAEGVPSRFSGSGSGTDFTLTISSLQPEDVATYYCQHHYGNPLTFGQGTKLEIK
notes: Humanized, VH.V2 + VK.V2
In the assay with human TIGIT-His protein [4], B5 returned a Kd of 0.0244 nM, a koff of 0.00014 s⁻¹ and a kon of 5.75e+06 M⁻¹ s⁻¹. For the same molecule, the EC50 in the assay with human TIGIT-His protein [8] amounted to 0.0111 µg/mL.

B6: 76D12B10-Hu06 (antibody, V domains shown)
VH: EVQLQESGPGLVKPSETLSLTCAVSGYSISSGYDWHWIRQPPGKGLEWIGFIRDSGSTVYNPSLKGRVTISHDTSKNQFSLKLSSVTAADTAVYYCARGLFWYFDVWGQGTTVTVSS
VL: DIQMTQSPSSLSASVGDRVTITCRTSENIFSYLAWYQQKPGKVPKLLIHNTKTLAEGVPSRFSGSGSGTDFTLTISSLQPEDVATYYCQHHYGNPLTFGQGTKLEIK
notes: Humanized, VH.V1 + VK.V1
On to B6, for which, in the assay with human TIGIT-His protein [4], the affinity, expressed as Kd, was 0.0136 nM; the dissociation rate constant (koff) is 0.000101 s⁻¹; the kon was 7.43e+06 M⁻¹ s⁻¹. This molecule also registered an IC50 in assay [5] of 0.866 µg/mL. Moreover, the “NFAT luciferase production, EC50” value in [6] was determined as 1.67 nM. In the assay with human TIGIT-His protein [7], the midpoint of the response, the EC50, lay at 0.00934 µg/mL. This molecule also registered an EC50 with human TIGIT-His protein [8] of 0.0104 µg/mL. For the same molecule, in the assay with human TIGIT-His protein [9], binding was put at a Kd of 0.0416 nM, the off-rate (koff) is 7.18e-05 s⁻¹ and the kon was 1.72e+06 M⁻¹ s⁻¹.

B7: 76D12B10-Hu14 (antibody, V domains shown)
VH: EVQLQESGPGLVKPSETLSLTCAASGYSITSGYDWHWIRQPPGKGLEWMGFIRDSGSTVYNPSLKGRITISHDTSKNQFSLKLSSVTAADTAVYYCARGLFWYFDVWGQGTTVTVSS
VL: DIQMTQSPSSLSASVGDRVTITCRTSENIFSYLAWYQQKPGKVPKLLVHNTKTLAEGVPSRFSGSGSGTDFTLTISSLQPEDVATYYCQHHYGNPLTFGQGTKLEIK
notes: Humanized, VH.V4 + VK.V2
As to B7, in the assay with human TIGIT-His protein [4], the affinity, expressed as Kd, was 0.0196 nM; the koff came out at 9.97e-05 s⁻¹; the association rate constant (kon) was found to be 5.09e+06 M⁻¹ s⁻¹. The concentration giving a half-maximal response (EC50) in the assay with human TIGIT-His protein [8] turned out to be 0.0107 µg/mL.

B8: 76D12B10-Hu13 (antibody, V domains shown)
VH: EVQLQESGPGLVKPSETLSLTCAVSGYSISSGYDWHWIRQPPGKGLEWMGFIRDSGSTVYNPSLKGRITISHDTSKNQFSLKLSSVTAADTAVYYCARGLFWYFDVWGQGTTVTVSS
VL: DIQMTQSPSSLSASVGDRVTITCRTSENIFSYLAWYQQKPGKVPKLLVHNTKTLAEGVPSRFSGSGSGTDFTLTISSLQPEDVATYYCQHHYGNPLTFGQGTKLEIK
notes: Humanized, VH.V3 + VK.V2
In the case of B8, in the assay with human TIGIT-His protein [4], the affinity, expressed as Kd, was 0.0281 nM; the koff is 0.000128 s⁻¹; the kon came to 4.54e+06 M⁻¹ s⁻¹. The same molecule yielded an EC50 with human TIGIT-His protein [8] of 0.0121 µg/mL.

B9: 76D12B10-Hu11 (antibody, V domains shown)
VH: EVQLQESGPGLVKPSETLSLTCAVSGYSISSGYDWHWIRQPPGKGLEWIGFIRDSGSTVYNPSLKGRVTISHDTSKNQFSLKLSSVTAADTAVYYCARGLFWYFDVWGQGTTVTVSS
VL: DIQMTQSPSSLSASVGDRVTITCRTSENIFSYLAWYQQKPGKVPKLLVHNTKTLAEGVPSRFSGSGSGTDFTLTISSLQPEDVATYYCQHHYGNPLTFGQGTKLEIK
notes: Humanized, VH.V1 + VK.V2
Consider B9, for which, in the assay with human TIGIT-His protein [4], the Kd came to 0.0255 nM, the dissociation rate constant (koff) is 9.21e-05 s⁻¹ and the kon came to 3.62e+06 M⁻¹ s⁻¹. This molecule gave an EC50 with human TIGIT-His protein [8] of 0.00709 µg/mL.

A word on the EC50: it is the midpoint of the concentration-response curve. Higher therefore signals weaker potency. Usually Kd stands for the free concentration of one partner at which half of the binding sites on the other are occupied at equilibrium, for simple one-to-one binding. A higher Kd goes with weaker binding. By koff is commonly meant the first-order rate constant of dissociation. Low values mean a long-lived complex, high ones a short-lived complex. As usually defined, the kon is the second-order rate constant of association. Read a high kon as fast association. A word on the IC50: it is the point on the concentration scale where inhibition reaches its midpoint. A lower IC50 goes with higher potency.
